The results in this text go back to patent US20210070829A1 (ZHEJIANG DOER BIOLOGICS, published 2021).

Common to all, as to test: cell-based or functional assay
For one assay, the target named is human GLP-1 receptor (human, UniProt P43220 24-463).
The target in another assay is Glucagon receptor.
The target of assay [1] is FGFR/β-Klotho receptor complex.

B1: C225 L10F10L14M2 (Fc fusion)
chain: HSQGTFTSDYSKYLDERAAQDFVQWLMNTGPSSGAPPPSGGGGAGGGGAGGGGAESKYGPPCPPCPAPEAAGGPSVFLFPPKPKDTLMISRTPEVTCVVVDVSQEDPEVQFNWYVDGVEVHNAKTKPREEQFASTYRVVSVLTVLHQDWLNGKEYKCKVSNKGLPSSIEKTISKAKGQPREPQVYTLPPSQEEMTKNQVSLTCLVKGFYPSDIAVEWESNGQPENNYKTTPPVLDSDGSFFLYSRLTVDKSRWQEGNVFSCSVMHEALHNHYTQKSLSLSLGGGGGAGGGGAGGGGASHPIPDSSPLLQFGGQVRQRYLYTDDAQQTEAHLEIREDGTVGGAADQSPESLLQLKALKPGVIQILGVKTSRFLCQRPDGALYGSLHFDPEACSFRERLLEDGYNVYQSEAHGLPLHCPGNKSPHRDPAPRGPCRFLPLPGLPPALPEPPGILAPQPPDVGSSDPLSMVGGSQGRSPSYES
Regarding B1, the “GLP-1R agonist activity EC50 (luciferase reporter)” value (“GLP-1R agonist activity EC50” below) with human GLP-1 receptor is 1.42 nM. Also, the “GCGR agonist activity EC50 (luciferase reporter)” value (shortened to “GCGR agonist activity EC50”) with Glucagon receptor was 1.17 nM. Besides, in assay [1], the “FGF21 activity EC50 (luciferase reporter)” value (shortened to “FGF21 activity EC50”) amounted to 0.85 nM.

B2: C227 L12F5L14M4 (Fc fusion)
chain: HSQGTFTSDYSKYLDSQAAQDFVQWLMNTGPSSGAPPSGGGGAGGGGAGGGGAAERKCCVECPPCPAPPVAGPSVFLFPPKPKDTLMISRTPEVTCVVVDVSHEDPEVQFNWYVDGVEVHNAKTKPREEQFNSTFRVVSVLTVVHQDWLNGKEYKCKVSNKGLPSSIEKTISKTKGQPREPQVYTLPPSREEMTKNQVSLTCLVKGFYPSDIAVEWESNGQPENNYKTTPPMLDSDGSFFLYSKLTVDKSRWQQGNVFSCSVMHEALHNHYTQKSLSLSPGGGGGAGGGGAGGGGASHPIPDSSPLLQFGGQVRQRYLYTDDAQQTEAHLEIREDGTVGGAADQSPESLLQLKALKPGVIQILGVKTSRFLCQRPDGALYGSLHFDPEACSFRERLLEDGYNVYQSEAHGLPLHCPGNKSPHRDPAPRGPCRFLPLPGLPPALPEPPGILAPQPPDVGSSDPLAMVGGSQGRSPSYES
In the case of B2, the “GLP-1R agonist activity EC50” value with human GLP-1 receptor amounted to 1.55 nM. Further, the “GCGR agonist activity EC50” value in the assay with Glucagon receptor was 1.38 nM. For the same molecule, the “FGF21 activity EC50” value in assay [1] came out at 0.71 nM.

B3: C462 L10F5L10M3 (Fc fusion)
chain: HSQGTFTSDYSKYLDEEAAQDFVQWLMNGGPSSGAPPPSGGGGAGGGGAGGGGAERKCCVECPPCPAPPVAGPSVFLFPPKPKDTLMISRTPEVTCVVVDVSHEDPEVQFNWYVDGVEVHNAKTKPREEQFNSTFRVVSVLTVVHQDWLNGKEYKCKVSNKGLPSSIEKTISKTKGQPREPQVYTLPPSREEMTKNQVSLTCLVKGFYPSDIAVEWESNGQPENNYKTTPPMLDSDGSFFLYSKLTVDKSRWQQGNVFSCSVMHEALHNHYTQKSLSLSPGGGGGAGGGGAGGGGADSSPLLQFGGQVRQRYLYTDDAQQTEAHLEIREDGTVGGAADQSPESLLQLKALKPGVIQILGVKTSRFLCQRPDGALYGSLHFDPEACSFRELLLEDGYNVYQSEAHGLPLHCPGNKSPHRDPAPRGPCRFLPLPGLPPALPEPPGILAPQPPDVGSSDPLAMVGPSQGRSPSYAS
For B3, the “GLP-1R agonist activity EC50” value with human GLP-1 receptor was found to be 1.23 nM. The “GCGR agonist activity EC50” value in the assay with Glucagon receptor was 1.22 nM. In assay [1], the “FGF21 activity EC50” value was determined as 1.37 nM.

B4: C495 L9F10L9M1 (Fc fusion)
chain: HSQGTFTSDYSKYLDEQAAQDFVQWLMNGGPSSGAPPPSGGGGSGGGGSGGGGSESKYGPPCPPCPAPEAAGGPSVFLFPPKPKDTLMISRTPEVTCVVVDVSQEDPEVQFNWYVDGVEVHNAKTKPREEQFASTYRVVSVLTVLHQDWLNGKEYKCKVSNKGLPSSIEKTISKAKGQPREPQVYTLPPSQEEMTKNQVSLTCLVKGFYPSDIAVEWESNGQPENNYKTTPPVLDSDGSFFLYSRLTVDKSRWQEGNVFSCSVMHEALHNHYTQKSLSLSLGGGGGSGGGGSGGGGSHPIPDSSPLLQFGGQVRQRYLYTDDAQQTEAHLEIREDGTVGGAADQSPESLLQLKALKPGVIQILGVKTSRFLCQRPDGALYGSLHFDPEACSFRERLLEDGYNVYQSEAHGLPLHLPGNKSPHRDPAPRGPARFLPLPGLPPALPEPPGILAPQPPDVGSSDPLSMVGGSQGRSPSYES
As to B4, the “GLP-1R agonist activity EC50” value with human GLP-1 receptor turned out to be 1.21 nM. The “GCGR agonist activity EC50” value in the assay with Glucagon receptor was found to be 1.43 nM. Also, the “FGF21 activity EC50” value in assay [1] came to 0.84 nM.

B5: C240 L13F10L9M2 (Fc fusion)
chain: HSQGTFTSDYSKYLDERAAQDFVQWLMNGGPSSGAPPPSGGGGSGGGGSGGGGSAESKYGPPCPPCPAPEAAGGPSVFLFPPKPKDTLMISRTPEVTCVVVDVSQEDPEVQFNWYVDGVEVHNAKTKPREEQFASTYRVVSVLTVLHQDWLNGKEYKCKVSNKGLPSSIEKTISKAKGQPREPQVYTLPPSQEEMTKNQVSLTCLVKGFYPSDIAVEWESNGQPENNYKTTPPVLDSDGSFFLYSRLTVDKSRWQEGNVFSCSVMHEALHNHYTQKSLSLSLGGGGGSGGGGSGGGGSHPIPDSSPLLQFGGQVRQRYLYTDDAQQTEAHLEIREDGTVGGAADQSPESLLQLKALKPGVIQILGVKTSRFLCQRPDGALYGSLHFDPEACSFRERLLEDGYNVYQSEAHGLPLHCPGNKSPHRDPAPRGPCRFLPLPGLPPALPEPPGILAPQPPDVGSSDPLSMVGGSQGRSPSYES
Regarding B5, the “GLP-1R agonist activity EC50” value with human GLP-1 receptor came to 1.21 nM. The “GCGR agonist activity EC50” value with Glucagon receptor was 1.25 nM. Besides, the “FGF21 activity EC50” value in assay [1] is 0.89 nM.

B6: C462 L13F10L9M4 (Fc fusion)
chain: HSQGTFTSDYSKYLDEEAAQDFVQWLMNGGPSSGAPPPSGGGGSGGGGSGGGGSAESKYGPPCPPCPAPEAAGGPSVFLFPPKPKDTLMISRTPEVTCVVVDVSQEDPEVQFNWYVDGVEVHNAKTKPREEQFASTYRVVSVLTVLHQDWLNGKEYKCKVSNKGLPSSIEKTISKAKGQPREPQVYTLPPSQEEMTKNQVSLTCLVKGFYPSDIAVEWESNGQPENNYKTTPPVLDSDGSFFLYSRLTVDKSRWQEGNVFSCSVMHEALHNHYTQKSLSLSLGGGGGSGGGGSGGGGSHPIPDSSPLLQFGGQVRQRYLYTDDAQQTEAHLEIREDGTVGGAADQSPESLLQLKALKPGVIQILGVKTSRFLCQRPDGALYGSLHFDPEACSFRERLLEDGYNVYQSEAHGLPLHCPGNKSPHRDPAPRGPCRFLPLPGLPPALPEPPGILAPQPPDVGSSDPLAMVGGSQGRSPSYES
On to B6, for which, in the assay with human GLP-1 receptor, the “GLP-1R agonist activity EC50” value amounted to 1.11 nM. Further, the “GCGR agonist activity EC50” value with Glucagon receptor came out at 1.23 nM. Further, in assay [1], the “FGF21 activity EC50” value was found to be 1.33 nM.

B7: C382 L13F10L9M1 (Fc fusion)
chain: HSQGTFTSDYSKYLDSQAAQDFVQWLMNGGPSSGAPPPSGGGGSGGGGSGGGGSAESKYGPPCPPCPAPEAAGGPSVFLFPPKPKDTLMISRTPEVTCVVVDVSQEDPEVQFNWYVDGVEVHNAKTKPREEQFASTYRVVSVLTVLHQDWLNGKEYKCKVSNKGLPSSIEKTISKAKGQPREPQVYTLPPSQEEMTKNQVSLTCLVKGFYPSDIAVEWESNGQPENNYKTTPPVLDSDGSFFLYSRLTVDKSRWQEGNVFSCSVMHEALHNHYTQKSLSLSLGGGGGSGGGGSGGGGSHPIPDSSPLLQFGGQVRQRYLYTDDAQQTEAHLEIREDGTVGGAADQSPESLLQLKALKPGVIQILGVKTSRFLCQRPDGALYGSLHFDPEACSFRERLLEDGYNVYQSEAHGLPLHLPGNKSPHRDPAPRGPARFLPLPGLPPALPEPPGILAPQPPDVGSSDPLSMVGGSQGRSPSYES
Turning to B7, the “GLP-1R agonist activity EC50” value in the assay with human GLP-1 receptor was found to be 1.13 nM. The “GCGR agonist activity EC50” value with Glucagon receptor came out at 1.27 nM. For the same molecule, in assay [1], the “FGF21 activity EC50” value turned out to be 0.76 nM.

B8: C788 L1F5L5M5 (Fc fusion)
chain: HSQGTFTSDYSKQMDSQRAQDFVQWLMNTKRNRNNIAGGGGSERKCCVECPPCPAPPVAGPSVFLFPPKPKDTLMISRTPEVTCVVVDVSHEDPEVQFNWYVDGVEVHNAKTKPREEQFNSTFRVVSVLTVVHQDWLNGKEYKCKVSNKGLPSSIEKTISKTKGQPREPQVYTLPPSREEMTKNQVSLTCLVKGFYPSDIAVEWESNGQPENNYKTTPPMLDSDGSFFLYSKLTVDKSRWQQGNVFSCSVMHEALHNHYTQKSLSLSPGGGGGSGGGGSHPIPDSSPLLQFGGQVRQRYLYTDDAQQTEAHLEIREDGTVGGAEDQSPESLLQLKALKPGVIQILGVKTSRFLCQRPDGALYGSLHFDPEACSFRERLLEDGYNVYQSEAHGLPLHCPGNKSPHRDPAPRGPCRFLPLPGLPPALPEPPGILAPQPPDVGSSDPLSMVGGSQGRSPSYES
B8: the “GLP-1R agonist activity EC50” value with human GLP-1 receptor was 10.6 nM. Also, the “GCGR agonist activity EC50” value with Glucagon receptor came out at 7.64 nM. Also, in assay [1], the “FGF21 activity EC50” value was determined as 0.88 nM.

B9: C711 L13F5L10M4 (Fc fusion)
chain: HSQGTFTSDYSKYLDSQAAQDFVQWLMNTKRNRNNIAGGGGSGGGGSGGGGSAERKCCVECPPCPAPPVAGPSVFLFPPKPKDTLMISRTPEVTCVVVDVSHEDPEVQFNWYVDGVEVHNAKTKPREEQFNSTFRVVSVLTVVHQDWLNGKEYKCKVSNKGLPSSIEKTISKTKGQPREPQVYTLPPSREEMTKNQVSLTCLVKGFYPSDIAVEWESNGQPENNYKTTPPMLDSDGSFFLYSKLTVDKSRWQQGNVFSCSVMHEALHNHYTQKSLSLSPGGGGGAGGGGAGGGGAHPIPDSSPLLQFGGQVRQRYLYTDDAQQTEAHLEIREDGTVGGAADQSPESLLQLKALKPGVIQILGVKTSRFLCQRPDGALYGSLHFDPEACSFRERLLEDGYNVYQSEAHGLPLHCPGNKSPHRDPAPRGPCRFLPLPGLPPALPEPPGILAPQPPDVGSSDPLAMVGGSQGRSPSYES
In the case of B9, the “GLP-1R agonist activity EC50” value in the assay with human GLP-1 receptor was determined as 10.8 nM. In addition, the “GCGR agonist activity EC50” value with Glucagon receptor is 9.55 nM. In assay [1], the “FGF21 activity EC50” value is 0.75 nM.

B10: C627 L12F10L9M6 (Fc fusion)
chain: HSQGTFTSDYSKQMDSQRAQDFVQWLMNGGPSSGAPPPSGGGGAGGGGAGGGGAAESKYGPPCPPCPAPEAAGGPSVFLFPPKPKDTLMISRTPEVTCVVVDVSQEDPEVQFNWYVDGVEVHNAKTKPREEQFASTYRVVSVLTVLHQDWLNGKEYKCKVSNKGLPSSIEKTISKAKGQPREPQVYTLPPSQEEMTKNQVSLTCLVKGFYPSDIAVEWESNGQPENNYKTTPPVLDSDGSFFLYSRLTVDKSRWQEGNVFSCSVMHEALHNHYTQKSLSLSLGGGGGSGGGGSGGGGSHPIPDSSPLLQFGGQVRQRYLYTDDAQQTEAHLEIREDGTVGGAADQSPESLLQLKALKPGVIQILGVKTSRFLCQRPDGALYGSLHFDPEACSFRERLLEDGYNVYQSEAHGLPLHCPGNKSPHRDPAPRGPCRFLPLPGLPPALPEPPGILAPQPPDVGSSDPLSMVEPSQGRSPSYAS
In the case of B10, the “GLP-1R agonist activity EC50” value with human GLP-1 receptor came to 1.48 nM. The “GCGR agonist activity EC50” value in the assay with Glucagon receptor was determined as 1.69 nM. Further, the “FGF21 activity EC50” value in assay [1] was 1.11 nM.
